In patent publication US7927849B2, “Laccase enzyme and use thereof” (AB Enzymes OY, priority 2004, dated 2011):

Experiment: Denim bleaching: laccase-mediator (100 nkat/g, 5 mg/g, 30 min, 60° C.) compared to sodium hypochlorite (15 min, 40° C.)
Procedure: Different types of demin were treated with a TaLcc1 laccase product from Trichoderma strain RF5597 and DeniLite II Base from Novozymes and the results obtained were compared to hypochlorite bleaching. All together 27 pieces of different kinds of denim (whole jeans), which had been previously washed with cellulase after desizing to different abrasion levels or had been only desized with ECOSTONE®A200 (60° C., 10 min), were collected for the test (Table 15). The jeans were made of Indigo dyed denim, except the English jeans contained Indigo dyed denim with sulphur bottom. Jeans were cut in such a way that pieces from the same pair of jeans could be used for all tests.
The jeans were made of Indigo dyed denim (right hand twill), except the English jeans contained Indigo dyed denim with sulphur bottom. The weights of the original (i.e. not desized) denim fabrics were typically higher than 475 g/m^2 (14 oz/yd^2). The weights of three 10 cm×10 cm pieces were measured after 24 hours incubation at room temperature (ca. 22° C. and at relative moisture ca. 64%).
The laccase treatments were performed with Electrolux's Wascator FOM 71 CLS washer extractor under optimal conditions for each enzyme, described in Table 16. Methyl syringate (Example 7) was used as a mediator. Laccase was inactivated after draining by raising the pH above 11 by NaOH (10 min, 60° C.) and rinsing for three times. The fabrics were dried in a tumbler.
The sodium hypochlorite bleaching was performed with Electrolux's Wascator FOM 71 CLS washer extractor using denim obtained from the same jeans as in laccase treatments under conditions described in Table 17. Sodium hydroxide was added before adding 25 ml/l of 10% sodium hypochlorite solution (Klorite Forte, Farmos Oy) to keep the pH above 10.5 during the treatment. After draining the bleach liquor, there was one 2 minutes rinsing step with the liquor ratio of 1:20 before dechlorinating with sodium thiosulphate. After dechlorinating the denim samples were rinsed 3 times for 2 minutes with the liquor ratio of 1:20. The fabrics were dried in a tumbler.
The bleaching effect was evaluated by measuring the colour as reflectance values as in Example 7. […] Different looks were obtained depending on the type of the denim and cellulase treatment used. “Sulphur-bottom type” denim was the most difficult to bleach.

[1] = all cellulase treated denim samples
[2] = sample B1: Basic Jeans, Ecostone P1250
[3] = sample E1: English jeans (sulphur bottom), desized only
[4] = sample E2: English jeans, Ecostone NP2000
[5] = sample E3: English jeans, Rocksoft NCE-EA
[6] = sample E4: English jeans, Rocksoft NCE-2X
[7] = sample E5: English jeans, Ecostone L900
[8] = sample E6: English jeans, Ecostone L900
[9] = sample E7: English jeans, Ecostone L900
[10] = sample L1: Lee Cooper jeans, desized only
[11] = sample L2: Lee Cooper jeans, Ecostone L
[12] = sample L3: Lee Cooper jeans, Biotouch C29
[13] = sample L4: Lee Cooper jeans, Ecostone L
[14] = sample L5: Lee Cooper jeans, Indiage Max L
[15] = sample L6: Lee Cooper jeans, Indiage Super L
[16] = sample L7: Lee Cooper jeans, Ecostone CXP500 Exper.
[17] = sample L8: Lee Cooper jeans, Ecostone CXP experimental
[18] = sample L9: Lee Cooper jeans, Ecostone N400
[19] = sample T1: Tincan jeans, desized only
[20] = sample T2: Tincan jeans, Ecostone N400
[21] = sample T3: Tincan jeans, Ecostone L300
[22] = sample T4: Tincan jeans, Denimax 991S
[23] = sample W1: Warric jeans, desized only
[24] = sample W2: Warric jeans, Ecostone P4500
[25] = sample W3: Warric jeans, Indiage Max G
[26] = sample W4: Warric jeans, Ecostone NP2000
[27] = sample W5: Warric jeans, Ecostone L900
[28] = sample W6: Warric jeans, Denabraide MBL 65 E

B1: TaLcc1: Recombinant Thielavia arenaria ALKO4197 laccase 1 (SEQ ID NO: 12) produced in Trichoderma reesei strains RF5597/RF5598 (protein)
chain: MKSWAAAVALMVGILSPHAAAAPPANPVQRDMLQVLEARQSGPTCNTPSNRACWTNGFDINTDYEVSTPNTGRTVAYQLTLTEKENWIGPDGVLKNVVMLVNDKIIGPTIRANWGDNIEVTVINNLKTNGTSMHWHGLRQLGNVFNDGANGVTECPIPPKGGRKTYKFRATQYGTSWYHSHFSAQYGNGVVGTIQIDGPASLPYDIDLGVFPLMDYYYRSADELVHFTQSNGAPPSDNVLFNGTARHPETGAGQWYNVTLTPGKRHRLRIINTSTDNHFQVSLVGHNMTVIATDMVPVNAFTVSSLFLAVGQRYDVTIDANSPVGNYWFNVTFGDGLCGSSNNKFPAAIFRYQGAPATLPTDQGLPVPNHMCLDNLNLTPVVTRSAPVNNFVKRPSNTLGVTLDIGGTPLFVWKVNGSAINVDWGKPILDYVMSGNTSYPVSDNIVQVDAVDQWTYWLIENDPTNPIVSLPHPMHLHGHDFLVLGRSPDELPSAGVRHIFDPAKDLPRLKGNNPVRRDVTMLPAGGWLLLAFKTDNPGAWLFHCHIAWHVSGGLSVDFLERPNDLRTQLNSNAKRADRDDFNRVCREWNAYWPTNPFPKIDSGLRHRFVEESEWMVR
modifications: Thielavia arenaria ALKO4197; (1)..(617) Deduced amino acid sequence of Thielavia arenaria ALKO4197 laccase 1 (Ta Lcc1)
bleaching better than DeniLite II Base [1]: 55-200%
bleaching better than sodium hypochlorite [1]: 60-115%
increase of L* better than DeniLite II Base (fabrics only desized): over 100%
increase of L* compared with sodium hypochlorite (fabrics only desized): equal or better
Increase of L* [2]: 17.71
L* after treatment [2]: 47.19
b* after treatment [2]: −12.75
Increase of L* [3]: 5.24
L* after treatment [3]: 22.71
b* after treatment [3]: −13.97
Increase of L* [4]: 10.51
L* after treatment [4]: 35.99
b* after treatment [4]: −14.08
Increase of L* [5]: 11.26
L* after treatment [5]: 36.52
b* after treatment [5]: −14.46
Increase of L* [6]: 11.75
L* after treatment [6]: 38.79
b* after treatment [6]: −13.94
Increase of L* [7]: 12.34
L* after treatment [7]: 37.53
b* after treatment [7]: −14.03
Increase of L* [8]: 11.63
L* after treatment [8]: 34.17
b* after treatment [8]: −14.79
Increase of L* [9]: 13.16
L* after treatment [9]: 36.00
b* after treatment [9]: −14.95
Increase of L* [10]: 12.92
L* after treatment [10]: 33.13
b* after treatment [10]: −19.41
Increase of L* [11]: 19.08
L* after treatment [11]: 50.89
b* after treatment [11]: −13.17
Increase of L* [12]: 19.21
L* after treatment [12]: 47.66
b* after treatment [12]: −14.82
Increase of L* [13]: 18.97
L* after treatment [13]: 48.39
b* after treatment [13]: −13.83
Increase of L* [14]: 19.24
L* after treatment [14]: 47.73
b* after treatment [14]: −14.28
Increase of L* [15]: 17.17
L* after treatment [15]: 46.71
b* after treatment [15]: −14.68
Increase of L* [16]: 15.75
L* after treatment [16]: 42.95
b* after treatment [16]: −16.23
Increase of L* [17]: 17.27
L* after treatment [17]: 46.73
b* after treatment [17]: −14.86
Increase of L* [18]: 16.22
L* after treatment [18]: 45.02
b* after treatment [18]: −14.91
Increase of L* [19]: 9.80
L* after treatment [19]: 34.82
b* after treatment [19]: −16.36
Increase of L* [20]: 14.50
L* after treatment [20]: 42.70
b* after treatment [20]: −14.60
Increase of L* [21]: 18.01
L* after treatment [21]: 47.09
b* after treatment [21]: −14.04
Increase of L* [22]: 16.37
L* after treatment [22]: 43.53
b* after treatment [22]: −15.18
Increase of L* [23]: 10.51
L* after treatment [23]: 28.54
b* after treatment [23]: −17.55
Increase of L* [24]: 16.04
L* after treatment [24]: 42.16
b* after treatment [24]: −14.48
Increase of L* [25]: 15.53
L* after treatment [25]: 44.08
b* after treatment [25]: −13.66
Increase of L* [26]: 13.32
L* after treatment [26]: 39.54
b* after treatment [26]: −14.72
Increase of L* [27]: 16.52
L* after treatment [27]: 40.49
b* after treatment [27]: −15.38
Increase of L* [28]: 15.57
L* after treatment [28]: 39.58
b* after treatment [28]: −15.62
